Data on one molecule can be found in publication PMC7312664, “Beneficial Effects of Inflammatory Cytokine-Targeting Aptamers in an Animal Model of Chronic Prostatitis”.

In the data set the target is IL-1b (human) (human, UniProt P01584 117-269). Kind of data set: plate binding assay / ELISA with aptamer replacing primary antibody; dose-dependent; protein fixed in plate, n = 3; buffer, salt, pH and temperature not given in the material.
IL-1b (human), sequence (P01584 117-269): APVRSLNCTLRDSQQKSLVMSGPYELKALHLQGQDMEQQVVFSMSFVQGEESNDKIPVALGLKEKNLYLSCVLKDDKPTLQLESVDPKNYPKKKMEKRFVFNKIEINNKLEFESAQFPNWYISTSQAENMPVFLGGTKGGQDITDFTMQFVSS

B1: AptIL-1b (ssDNA)
DNA: GAAGTATAGCGCAATAAACTCACCTCCCAC
In the case of B1, the binding result is given as “binds”.
